Results published in the RNAGym collection of RNA variant scans (doi:10.7554/elife.90254).

B1: OR4K15 (parent)
chain: GUUAACGGUCAUAGGCCAUGGAAACUAGGAGCACCAUUUCGCUGCCAGUGAAGAAAUGAACAAAGAAAAUCUGGGCCAGGCAGGCAUCAAAAGAAAUAGUCUUGCGCUCAACCAGAAAGUCUGUAAUCAUUUUAAGGGUA

Variants of: B1
Assay: self-cleavage, relative activity (ratio to wild type); higher = more cleavage; in vitro, sequencing; the parent is a self-cleaving ribozyme

Variant | self-cleavage
U19A A59U | 1.72
C17U A66G | 1.68
C16U A140G | 1.64
C16G U124A | 0.77
U19C A30U | 1.02
A18G U127A | 1.64
A18G U127C | 1.53
U19C A125G | 0.61
U19A U131A | 0.78
A18G A117G | 0.59
A18G U49A | 1.54
A18U A36G | 1.65
C17U A94G | 1.32
A18C A96U | 0.98
C16U A54G | 0.87
A18U U130C | 1.37
C16A A56C | 0.52
A18G U132C | 0.77
A18U A135G | 1.36
C16U A94U | 1.89
U19C G75U | 0.08
C16U A114G | 0.2
U19C C46A | 1.64
A18U U103C | 1.29

Variant | self-cleavage
A18U A63G | 0.84
C17U A118G | 1.1
G15U A118G | 1.88
U19C A52G | 1.35
U19A A78U | 0.35
U19A A78C | 0.29
A18G A118U | 0.64
U19C U39C | 1.7
A18U U122C | 0.87
A18U U122A | 0.64
U19C A63G | 0.89
U19C A116G | 0.11
U19C A116U | 0.3
U19A A116G | 1.24
U19C C105G | 0.04
U19C C105U | 0.15
A18C A111G | 0.02
C17U U131A | 0.93
C17U U131C | 0.73
C16G A47U | 0.8
A18G A69G | 1.9
A18C U127C | 0.63
C16U A111G | 0.05
U19C A134G | 1.62

Variant | self-cleavage
U19C A62U | 1.48
A18G A63G | 1.17
A18G U43C | 1.52
A18G U43A | 1.23
U19C A36U | 1.76
U19C A36G | 2.03
U19C A47G | 0.41
A18U A117G | 1.72
A18U U19C | 0.12
A18U U19A | 1.53
U19A A66G | 1.27
U19A A66U | 1.07
A18G A64G | 1.11
A18G A64U | 1.92
U19A A67G | 1.84
C16U A22U | 1.32
C16U A22C | 1.53
U19C A89U | 1.15
U19C A89G | 1.5
A18G A66G | 1.81
A18U A82U | 0.16
A18U A82G | 0.46
U19A A64G | 1.03
A18U G41A | 1.09

Variant | self-cleavage
A18U A30G | 1.39
U19C A51U | 1
C16U G73A | 0.15
C16G A68G | 0.69
U19A U43C | 1.77
A18G A140G | 0.55
U19A U72A | 0.21
U19C G50A | 1.38
A18G A95G | 1.38
A18G G50A | 0.74
U19C A69G | 1.05
U19C A69U | 1.62
U19C A69C | 1.71
U19C G48U | 2.78
A18G A86C | 1.68
C16U U72A | 0.53
U19C C45U | 0.47
C16A U102C | 1.49
U19C A23G | 0.88
A18U A64G | 0.9
U19C G80C | 0.1
C16U A23U | 1.24
U19C A95G | 1.58
G15U G136A | 2.24

Variant | self-cleavage
U19A U97G | 1.84
A18U G74A | 0.22
A18U A62G | 1.37
A18U A62U | 1.56
A18U A62C | 0.88
U19A G31A | 1.02
C17A A56G | 2.2
A18U A118G | 0.6
C17U U108C | 0
A18U A52G | 1.7
C17U U102C | 0.9
A18U U37C | 0.8
A18G A114U | 0.14
A18G A114G | 0.77
A18U A27C | 1.5
C16U U39G | 1.27
A18C U39A | 1.48
A18U A129G | 1.24
U19A A86U | 1.87
A18G A33U | 1.92
A18U U108A | 0.02
A18G A90U | 2.38
A18G A90G | 1.36
A18G U38G | 1.56

Variant | self-cleavage
A18G A23U | 1.88
A18G A24G | 1
A18G A24U | 1.6
U19C U37A | 0.9
A18G U26A | 1.1
U19C C34U | 0.91
A18C U103C | 0.86
A18G A59U | 1.65
A18G A59C | 1.7
A18G A59G | 1.19
U19A A68G | 1.64
A18G A98G | 0.59
C16G A55G | 0.86
C16A U38C | 0.92
C17A A135C | 1.23
C16U G137A | 0.85
A18U A94G | 1.06
A18G A126U | 0.44
A18G A126C | 0.48
U19C C32U | 1.32
U19C C32G | 1.51
A18G U131C | 1.63
A18G A92G | 1.3
A18G C101U | 0.85

Variant | self-cleavage
U19A A92U | 2.13
U19A A92G | 1.47
U19C A91G | 1.09
A18U A90U | 1.13
U19C U38A | 1.46
A18U C85U | 1.37
A18U U131C | 0.74
U19A A129G | 0.05
C17U U100A | 0.96
U19A A134U | 0.89
A18U U70C | 1.04
G15U U72G | 0.36
U19C A55G | 1.17
A18U A92G | 1.04
U19C A140G | 0.62
U19C A24G | 1.28
U19A U26A | 1.58
C17A U19C | 0.87
A18U A68U | 2.28
A18U A68G | 0.74
U19A U39C | 0.99
U19A C35A | 0.65
U19A U38C | 1.98
